Test results reported in patent US20030114646A1 (Human Genome Sciences, published 2003).

Target: T1, papain (UniProt P00784 134-345)
T1 sequence (looked up): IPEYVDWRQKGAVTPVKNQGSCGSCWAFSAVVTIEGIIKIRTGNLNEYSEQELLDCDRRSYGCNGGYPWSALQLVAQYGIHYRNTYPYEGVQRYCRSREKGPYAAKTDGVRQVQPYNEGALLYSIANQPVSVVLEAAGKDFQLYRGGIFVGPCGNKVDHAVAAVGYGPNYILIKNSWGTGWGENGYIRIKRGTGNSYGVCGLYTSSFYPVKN
Test: reversible inhibition of papain activity, Ki corrected for substrate competition (Km=60 µM)

B1: human Cystatin F (recombinant, produced in a baculovirus system) (other)
chain: GPSPDTCSQDLNSRVKPGFPKTIKTNDPGVLQAARYSVEKFNNCTNDMFLFKESRITRALVQIVKGLKYMLEVEIGRTTCKKNQHLRLDDCDFQTNHTLKQTLSCYSEVWVVPWLQHFEVPVLRCH
notes: 20-145 is used here; also called recombinant Cystatin F
- Ki: 1.05 nM
